Assay results published in US20220332795A1.
Residue numbers refer to the chain shown, from its start. Each block holds one binder with its values, some of them ahead of it.

Legend:
[1] = target: human serum albumin (human) (UniProt P02768); assay: primary solution ELISA screen
[2] = target: human serum albumin (human) (UniProt P02768); assay: solution ELISA screen (luminescence)

human serum albumin (human), sequence (P02768 25-609 limits assumed): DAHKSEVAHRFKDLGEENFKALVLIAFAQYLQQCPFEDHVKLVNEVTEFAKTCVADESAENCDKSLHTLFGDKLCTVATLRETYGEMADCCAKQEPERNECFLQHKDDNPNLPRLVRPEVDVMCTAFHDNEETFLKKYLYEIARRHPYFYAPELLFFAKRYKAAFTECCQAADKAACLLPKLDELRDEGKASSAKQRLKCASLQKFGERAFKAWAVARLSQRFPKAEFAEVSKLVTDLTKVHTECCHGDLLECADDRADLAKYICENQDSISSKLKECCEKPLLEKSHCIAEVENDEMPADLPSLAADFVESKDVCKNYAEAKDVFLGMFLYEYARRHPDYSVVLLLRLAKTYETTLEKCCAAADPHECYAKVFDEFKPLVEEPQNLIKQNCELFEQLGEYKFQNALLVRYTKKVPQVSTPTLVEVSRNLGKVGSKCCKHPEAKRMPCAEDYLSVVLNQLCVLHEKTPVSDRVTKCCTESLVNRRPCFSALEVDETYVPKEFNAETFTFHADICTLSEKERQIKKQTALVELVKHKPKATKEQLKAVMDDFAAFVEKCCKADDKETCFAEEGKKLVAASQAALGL

B2: SEQ ID NO 25 (designed binder, not shown: small tags and cut ends)
chain: MLPAPKNLVVSRVTEDSARLSWTAPDAAFDSFPIWYLEKSYQGEAIVLTVPGSERSYDLTGLKPGTEYVVPIIGVKGGRDSCPLSAIFTT
- RLU [1]: 3850 RLU

B3: SEQ ID NO 31 (designed binder, not shown: small tags and cut ends)
chain: MLPAPKNLVVSRVTEDSARLSWTAPDAAFDSFTIEYSEHPIDGEAIPLFVPGSERSYDLTGLKPGTEYYVRIHGVKGGWFSHPLWAFFTT
- RLU [1]: 4650 RLU

B4: SEQ ID NO 22 (designed binder, not shown: small tags and cut ends)
chain: MLPAPKNLVVSRVTEDSARLSWTAPDAAFDSFWYLELQFAGEAIVLTVPGSERSYDLTGLKPGTEYNVPITGVKGGIISFPLSAIFTT
- RLU [1]: 30000 RLU

B6: SEQ ID NO 32 (designed binder, not shown: small tags and cut ends)
chain: MLPAPKNLVVSRVTEDSARLSWQGVARAFDSFLITYREQIFAGEVIVLTVPGSERSYDLTGLKPGTEYGVTIAGVKGGWRSKPLNAESTT
- RLU [1]: 4550 RLU

B11: SEQ ID NO 13 (designed binder, not shown: small tags and cut ends)
chain: MLPAPKNLVVSRVTEDSARLSWTAPDAAFDSFLIAYPEDGFRGEAIVLTVPGSERSYDLTGLKPGTEYPVPILGVKGGGGSGPLSAIFTT
- RLU [1]: 24600 RLU

B12: SEQ ID NO 33 (designed binder, not shown: small tags and cut ends)
chain: B11 chain with L33G, P37V, D39S, G40Y, F41W, R42Y, P69N, L73Y, G79D
- RLU [1]: 2050 RLU

B13: SEQ ID NO 34 (designed binder, not shown: small tags and cut ends)
chain: B11 chain with L33Y, A35T, P37V, D39L, G40N, F41L, R42A, G79S, G80L, G82Q
- RLU [1]: 8100 RLU

B14: SEQ ID NO 18 (designed binder, not shown: small tags and cut ends)
chain: B11 chain with L33N, A35M, P37H, D39I, G40I, F41Y, R42V, L73E, G80T
- RLU [1]: 10400 RLU

B20: SEQ ID NO 19 (designed binder, not shown: small tags and cut ends)
chain: B11 chain with L33A, A35T, P37T, D39A, G40A, F41L, R42C, L73N, G80T
- RLU [1]: 17900 RLU

B21: SEQ ID NO 23 (designed binder, not shown: small tags and cut ends)
chain: MLPAPKNLVVSRVTEDSARLSWTAPDAAFDSFAIWYHEWYGDGEAIVLTVPGSERSYDLTGPKPGTEYRVRISGVKGGFESGPLSAIFTT
- RLU [1]: 12600 RLU

B22: SEQ ID NO 30 (designed binder, not shown: small tags and cut ends)
chain: MLPAPKNLVVSRVTEDSARLSWTAPDAAFDSFIIHYVEQQLIGEAIVLTVPGSERSYDLTGLKPGTEYPVPITGVKGGACSWPLSAIFTT
- RLU [1]: 4450 RLU

B23: SEQ ID NO 20 (designed binder, not shown: small tags and cut ends)
chain: MLPAPKNLVVARVTEDSARLSWTAPDAAIDSFPIDYSEYWWGGEAIVLTVPGSERSYDLTGLKPGTEYPVLITGVKGGYRSGPLSAIFTT
- RLU [1]: 18400 RLU

B24: SEQ ID NO 3 (designed binder, not shown: small tags and cut ends)
chain: MLPAPKNLVVSRVTEDSARLSWTAPDAAFDSFNIEYAETRWYGEAIVLTVPGSERSYDLTGLKPGTEYVVPIDGVKGGIASKPLSAIFTT
- RLU [1]: 9950 RLU

B25: SEQ ID NO 82 (designed binder, not shown: small tags and cut ends)
chain: MLPAPKNLVVSRVTEDSARLSWTAPDAAFDSFLIPYAETSPSGEAIVLTVPGSERSYDLTGLKPGTEYSVLIHGVKGGDYSSPLSAIFTT
- RLU [1]: 14800 RLU

B26: SEQ ID NO 12 (designed binder, not shown: small tags and cut ends)
chain: B25 chain with L33F, T39P, S42T, D79H, Y80L, S82D, F88S
- RLU [1]: 49000 RLU

B28: SEQ ID NO 35 (designed binder, not shown: small tags and cut ends)
chain: MLPAPKNLVVSRVTEDSARLSWTAPDAAFDSFPISYIESIADGEAIVLTVPGSERSYDLTGLKPGTEYWVAIVGVKGGPFSWSLSAIVTT
- RLU [1]: 18800 RLU

B30: SEQ ID NO 29 (designed binder, not shown: small tags and cut ends)
chain: MLPAPKNLVVSRVTEDSARLSWTAPDAAFDSFWIEYWEAVGFGEAIVLTVPGSERSYDLTGLKPGTEYFVGIYGVKGGYLSAPLSAIFTT
- RLU [1]: 3750 RLU

B31: SEQ ID NO 2 (designed binder, not shown: small tags and cut ends)
chain: MLPAPKNLVVSEVTEDSARLSWQGVARAFDSFMINYSELFWMGEAIVLTVPGSERSYDLTGLKPGTEYVVRIKGVKGGKGSWPLHAHFTT
- RLU [1]: 28400 RLU

B32: SEQ ID NO 27 (designed binder, not shown: small tags and cut ends)
chain: MLPAPKNLVVSRVTEDSARLSWTAPDAAFDSFRISYAETVRQGEAIVLTVPGSERSYDLTVETGYRNWVMILGVKGGPGSLPLSAIFTT
- RLU [1]: 2350 RLU

B34: SEQ ID NO 81 (designed binder, not shown: small tags and cut ends)
chain: MLPAPKNLVVSRVTEDSARLSWQGVARAFDSFLITYVELRHLGEAIVLTVPGSERSYDLTGLKPGTEYPVWIQGVKGGSPSAPLSAEFTT
- RLU [1]: 9850 RLU

B35: SEQ ID NO 15 (designed binder, not shown: small tags and cut ends)
chain: B34 chain with V37R, L39Q, R40I, H41F, L42A, A45V, Y68C
- RLU [1]: 14400 RLU

B39: SEQ ID NO 21 (designed binder, not shown: small tags and cut ends)
chain: MLPAPKNLVVSRVTEDSARLSWTAPDAAFDSFSIRYNEFIVAGEAIVLTVPGSERSYDLTGLKPGTEYDVPIAGVKGGGASWPLSAIVTT
- RLU [1]: 6850 RLU

B40: SEQ ID NO 24 (designed binder, not shown: small tags and cut ends)
chain: MLPAPKNLVVSRVTEDSARLSWTAPDAAFDSFMIRYQEGTRWGEAIVLTVPGSERSYDLTGLKPGTEYIVMIAGVKGGQISLPLSAIFTT
- RLU [1]: 6550 RLU

B42: SEQ ID NO 17 (designed binder, not shown: small tags and cut ends)
chain: B11 chain with L33P, A35L, P37T, D39C, G40V, F41Y, P69H, L73T, G82W
- RLU [1]: 3650 RLU

Results, then the binder that gave them:

- RLU [1]: 5150 RLU
B1: SEQ ID NO 100 (designed binder, not shown: small tags and cut ends)
chain: B2 chain with P33Y, L37E, K39V, S40M, Q42L, V69N, I73P, R79H, D80S, C82P

- RLU [1]: 6500 RLU
B5: SEQ ID NO 97 (designed binder, not shown: small tags and cut ends)
chain: MLPAPKNLVVSRVTEDSARLSWTAPDAAFDSFHIWYEEETTIGEAIYLHVPGSERSYDLTGLKPGTEYEVHITGVKGGPYSRPLFANFTT

- RLU [2]: 20400 RLU
B7: SEQ ID NO 242 (designed binder, not shown: small tags and cut ends)
chain: MLPAPKNLVVSRVTEDSARLSWTAPDAAFDSFYIAYAEPRPDGEAIQLLVPGSERSYDLTGLKPGTEYSVLIHGVKGGLLSSPLYAAFTT

- RLU [2]: 18400 RLU
B8: SEQ ID NO 245 (designed binder, not shown: small tags and cut ends)
chain: B7 chain with Q47A, L49W, Y85V, A87S

- RLU [2]: 18000 RLU
B9: SEQ ID NO 244 (designed binder, not shown: small tags and cut ends)
chain: B7 chain with Q47S, L49Q, Y85G, A87H

- RLU [1]: 111000 RLU
B10: SEQ ID NO 83 (designed binder, not shown: small tags and cut ends)
chain: B7 chain with Y33P, Q47V, L49T, Y85S, A87I, F88S

- RLU [2]: 26600 RLU
B15: SEQ ID NO 241 (designed binder, not shown: small tags and cut ends)
chain: MLPAPKNLVVSRVTEDSARLSWTAPDAAFDSFFIGYLEPQPPGEAIHLGVPGSERSYDLTGLKPGTEYNVTIQGVKGGFPSIPLFASFTT

- RLU [2]: 30900 RLU
B16: SEQ ID NO 243 (designed binder, not shown: small tags and cut ends)
chain: B15 chain with G49A, I82V, F85A, S87V

- RLU [1]: 15200 RLU
B17: SEQ ID NO 96 (designed binder, not shown: small tags and cut ends)
chain: MSLPAPKNLVVSRVTEDSARLSWTAPDAAFDSFPIAYLEVFYEGEAIVLTVPGSERSYDLTGLKPGTEYQVPIEGVKGGAMSLPLSAIFTT

- RLU [1]: 4750 RLU
B18: SEQ ID NO 93 (designed binder, not shown: small tags and cut ends)
chain: MLPAPKNLVVSRVTEDSARLSWTAPDAAFDSFAIEYYEPVPAGEAIYLDVPGSERSYDLTGLKPGTEYDVTIYGVKGGYYSHPLFASFTT

- RLU [1]: 3650 RLU
B19: SEQ ID NO 87 (designed binder, not shown: small tags and cut ends)
chain: MLPAPKNLVVSRVTEDSARLSWTAPDAAFDSFAIEYTEFLYSGEAIVLTVPGSERSYDLTGLKPGTEYGVPINGVKGGFVSPPLSAIVTT

- RLU [1]: 9850 RLU
B27: SEQ ID NO 99 (designed binder, not shown: small tags and cut ends)
chain: B25 chain with L33F, T39P, S42T, D79H, Y80L, S82D, A86V

- RLU [1]: 6350 RLU
B29: SEQ ID NO 85 (designed binder, not shown: small tags and cut ends)
chain: B30 chain with W33I, W37F, A39P, V40I, G41P, F42I, F69A, G71N, A82H

- RLU [1]: 6500 RLU
B33: SEQ ID NO 89 (designed binder, not shown: small tags and cut ends)
chain: B30 chain with K6E, W37Y, A39G, G41I, F42Q, G71A, Y73W, Y79K, L80W, A82V

- RLU [1]: 87200 RLU
B36: SEQ ID NO 94 (designed binder, not shown: small tags and cut ends)
chain: B34 chain with R12E, V37R, L39Q, R40I, H41F, L42A, A45V, E87I

- RLU [1]: 127000 RLU
B37: SEQ ID NO 84 (designed binder, not shown: small tags and cut ends)
chain: B34 chain with L33S, T35L, V37L, R40T, H41P, L42K

- RLU [1]: 39700 RLU
B38: SEQ ID NO 102 (designed binder, not shown: small tags and cut ends)
chain: B34 chain with V37R, L39Q, R40I, H41F, L42A, A45V

- RLU [1]: 24200 RLU
B41: SEQ ID NO 88 (designed binder, not shown: small tags and cut ends)
chain: MLPAPKNLVVSRVTEDSARLSWTAPDAAFDSFPIKYREVLRCGEAIVLTVPGSERSYDLTGLKPGTEYTVPITGVKGGFGSSPLSAIFTT

- RLU [1]: 12400 RLU
B43: SEQ ID NO 90 (designed binder, not shown: small tags and cut ends)
chain: MLPAPKNLVVSRVTEDSARLSWQGVARAFDSFLITYREQIFAGEVIVLTVPGSERSYDLTGLKPGTEYPVWIQGVKGGSPSAEFTT
